B1: CjAA10BΔCBM (Cellvibrio japonicus Ueda107) (protein)
chain: HGFVDSPGARNYFCGAVTKPDHVMNGVARYPECAGAFANDFNGGYSYMSVLTHHQGRKVLGPVARNVCGFDSETWNGGKTPWDNAINWPVNNINSGTLTFSWDISNGPHFDDTSDFRYWITKPGFVYQVGRELTWADFEDQPFCDLAYNDDNPGAYPNVRADKPNTHFHTTCTVPARTGRHVIYAEWGREPPTYERFHGCIDVQIGGGSNSSVPVSSSSSSRSSSSSSLAPSSSSRSSSSSSSVSSSRSSSSSVVSSSSSSRPASSSSSSTGGS
notes: AA10 catalytic part, C-terminal CBM deleted, from pET22-CjAA10B
B2: CjX183, c-type cytochrome X183 domain of Cbp2D from Cellvibrio japonicus (domain or fragment)
chain: GYLVGDATRGANLWNTQTCVACHGVDGERNASGTPALTPLNPNRDLYRHSRDTQDRALRDFISMWMPQGNEGSCTGQCAADIEAFIRTW
modifications: heme c covalently linked via thioether linkages to Cys19 and Cys22 (numbering of the structure); disulfide bond between cysteines 74 and 78

Columns and labels:
[1] = substrate: O=C1O[C@H]([C@@H](O)CO)C(O)=C1O; test: Amplex Red / horseradish peroxidase coupled H2O2 production, initial rates; type: biochemical, Cellvibrio japonicus; settings: reductant varied, no polysaccharide, O2 from air, 50 mM sodium phosphate pH 6.0, room temperature, 2 µM LPMO
From the text: Amplex Red / horseradish peroxidase coupled H2O2 production, initial rates on CjAA10BΔCBM | concentration of CjX183, or ascorbate, was varied around calculated KM values

[2] = molecular target: CfAA10, LPMO from Cellulomonas fimi (Cellulomonas fimi)
[3] = molecular target: CjAA10BΔCBM, cellulose active LPMO CjAA10B from Cellvibrio japonicus lacking its CBM (Cellvibrio japonicus)

Row | Binder | Km [1] [µM] | rate of oxidation of reduced CjX183 (10 µM, decay of A552, single exponential) with 0 to 50 µM CfAA10; rate rose linearly [2] [min⁻¹] | rate of oxidation of reduced CjX183 (10 µM, decay of A552, single exponential) with 0 to 50 µM CjAA10BΔCBM; rate rose linearly [3] [min⁻¹]
1 | B1 | 5.8 ± 0.3 |  | 
2 | B2 |  | 1.13 | 0.56

— PMC8981238, “C-type cytochrome-initiated reduction of bacterial lytic polysaccharide monooxygenases” (Biochemical Journal, 2021)
